Reference: patent publication US20090191117A1

Target: αvβ3 and αvβ5 integrins on human umbilical vein endothelial cells (human), P06756
Assay: cell-based or functional assay

B1: CNTO 95 (antibody, V domains shown)
VH: QVQLVESGGGVVQPGRSRRLSCAASGFTFSRYTMHWVRQAPGKGLEWVAVISFDGSNKYYVDSVKGRFTISRDNSENTLYLQVNILRAEDTAVYYCAREARGSYAFDIWGQGTMVTVSS
VL: EIVLTQSPATLSLSPGERATLSCRASQSVSSYLAWYQQKPGQAPRLLIYDASNRATGIPARFSGSGSGTDFTLTISSLEPEDFAVYYCQQRSNWPPFTFGPGTKVDIK
HUVEC adhesion to fibrin, percent of adhesion without antibody, antibody at 10 µg/ml: 45.1%
HUVEC adhesion to fibrinogen, percent of adhesion without antibody, antibody at 10 µg/ml: 34.5%
HUVEC adhesion to gelatin, percent of adhesion without antibody, antibody at 10 µg/ml: 54.8%
HUVEC adhesion to vitronectin, percent of adhesion without antibody, antibody at 10 µg/ml: 3.3%
